To fix the notation:
B1: Receptor comprising gp130 (B10G) and LIF-R (pHLIFR-65) co-expressed on COS-7 cells (receptor)
chain 1: ELLDPCGYISPESPVVQLHSNFTAVCVLKEKCMDYFHVNANYIVWKTNHFTIPKEQYTIINRTASSVTFTDIASLNIQLTCNILTFGQLEQNVYGITIISGLPPEKPKNLSCIVNEGKKMRCEWDGGRETHLETNFTLKSEWATHKFADCKAKRDTPTSCTVDYSTVYFVNIEVWVEAENALGKVTSDHINFDPVYKVKPNPPHNLSVINSEELSSILKLTWTNPSIKSVIILKYNIQYRTKDASTWSQIPPEDTASTRSSFTVQDLKPFTEYVFRIRCMKEDGKGYWSDWSEEASGITYEDRPSKAPSFWYKIDPSHTQGYRTVQLVWKTLPPFEANGKILDYEVTLTRWKSHLQNYTVNATKLTVNLTNDRYLATLTVRNLVGKSDAAVLTIPACDFQATHPVMDLKAFPKDNMLWVEWTTPRESVKKYILEWCVLSDKAPCITDWQQEDGTVHRTYLRGNLAESKCYLITVTPVYADGPGSPESIKAYLKQAPPSKGPTVRTKKVGKNEAVLEWDQLPVDVQNGFIRNYTIFYRTIIGNETAVNVDSSHTEYTLSSLTSDTLYMVRMAAYTDEGGKDGPEFTFTTPKFAQGEIEAIVVPVCLAFLLTTLLGVLFCFNKRDLIKKHIWPNVPDPSKSHIAQWSPHTPPRHNFNSKDQMYSDGNFTDVSVVEIEANDKKPFPEDL
chain 2: QKKGAPHDLKCVTNNLQVWNCSWKAPSGTGRGTDYEVCIENRSRSCYQLEKTSIKIPALSHGDYEITINSLHDFGSSTSKFTLNEQNVSLIPDTPEILNLSADFSTSTLYLKWNDRGSVFPHRSNVIWEIKVLRKESMELVKLVTHNTTLNGKDTLHHWSWASDMPLECAIHFVEIRCYIDNLHFSGLEEWSDWSPVKNISWIPDSQTKVFPQDKVILVGSDITFCCVSQEKVLSALIGHTNCPLIHLDGENVAIKIRNISVSASSGTNVVFTTEDNIFGTVIFAGYPPDTPQQLNCETHDLKEIICSWNPGRVTALVGPRATSYTLVESFSGKYVRLKRAEAPTNESYQLLFQMLPNQEIYNFTLNAHNPLGRSQSTILVNITEKVYPHTPTSFKVKDINSTAVKLSWHLPGNFAKINFLCEIEIKKSNSVQEQRNVTIKGVENSSYLVALDKLNPYTLYTFRIRCSTETFWKWSKWSNKKQHLTTEASPSKGPDTWREWSSDGKNLIIYWKPLPINEANGKILSYNVSCSSDEETQSLSEIPDPQHKAEIRLDKNDYIISVVAKNSVGSSPPSKIASMEIPNDDLKIEQVVGMGKGILLTWHYDPNMTCDYVIKWCNSSRSEPCLMDWRKVPSNSTETVIESDEFRPGIRYNFFLYGCRNQGYQLLRSMIGYIEELAPIVAPNFTVEDTSADSILVKWEDIPVEELRGFLRGYLFYFGKGERDTSKMRVLESGRSDIKVKNITDISQKTLRIADLQGKTSYHLVLRAYTDGGVGPEKSMYVVTKENSVGLIIAILIPVAVAVIVGVVTSILCYRKREWIKETFYPDIPNPENCKALQFQKSVCEGSSALKTLEMNPCTPNNVEVLETRSAFPKIEDTEIISPVAERPEDRSDAEPENHVVVSYCPPIIEEEIPNPAADEAGGTAQVIYIDVQSMYQPQAKPEEKKKKSRSSRSKI
B2: Human gp130 encoded by plasmid B10G, expressed on COS-7 cells (receptor)
chain: B1 chain 1
B3: Single-polypeptide chain human LIF-R encoded by pHLIFR-65, expressed on COS-7 cells (receptor)
chain: B1 chain 2
B4: Recombinant human leukemia inhibitory factor (LIF) (ligand)
chain: not shown
modifications: radioiodinated (125I) where used as the labelled ligand; non-radiolabeled where used as competitor

Assay [1] has as its target B4. Kind of assay: Scatchard analysis of 125I-LIF binding to COS-7 cells co-transfected with B10G and pHLIFR-65 (curve A), phthalate oil separation. On the procedure: (§1) Host cells transfected with vector(s) encoding LIF-R or gp130 as described below were assayed for the ability to bind LIF. The host cells were the monkey kidney cell line designated COS-7, described by Glutzman, *Cell* 23:175 (1981). In separate transfections, COS-7 cells were transfected with the following combinations of vectors. The different types of transfected cells (and non-transfected control cells) are designated A–F as shown below, and the curves representing the LIF-binding assay data for each transfected or control cell type are also labeled A–F in FIG. 1.
(§2) Briefly, the COS-7 host cells were released from 10 cm tissue culture plates two days after transfection by incubation in non-enzymatic cell dissociation buffer (Sigma) at 37° C. for 30–60 minutes. Cells were then washed with the above-described binding medium and resuspended in binding medium at 5 ×10^6 cells/ml. 50 μl aliquots of the cells were incubated with serial dilutions of ^125I-LIF at room temperature for one hour with agitation (in the presence or absence of a 200-fold excess of unlabeled LIF) in a total volume of 150 μl. The unlabeled LIF allowed for calculation of the non-specific background binding of LIF. […]

In assay [2] the target is B4. Kind of assay: 125I-LIF binding to COS-7 cells transfected with B10G and CAV (curve F against curve E), phthalate oil separation, Scatchard. On the procedure:
as §1, §2

For assay [3], the target named is B4. Kind of assay: Scatchard analysis of 125I-LIF binding to COS-7 cells transfected with pHLIFR-65 and CAV (curve B, site 2), phthalate oil separation. The procedure:
as §1, §2

Assay [4] has as its target B1. Kind of assay: Scatchard analysis of 125I-LIF binding to co-transfected COS-7 cells preincubated with oncostatin M as competitor (curve C). The procedure:
as §1, §2

As to B1, in assay [1], the Kd worked out at 0.9 nM.
In the case of B2, the binding result in assay [2] is on record as “no binding”.
In the case of B3, in assay [3], the Kd turned out to be 2.4 nM.
Turning to B4, in assay [4], the “KD after preincubation of the cells with non-radiolabeled oncostatin M” value turned out to be 4.2 nM.

In general, Kd refers to the equilibrium constant for the complex coming apart.

The record behind these values is patent US5262522, “Receptor for oncostatin M and leukemia inhibitory factor” (Immunex Corporation, dated 1993).
